[ ]: non-standard residue; d: D form. pS = N[C@@H](COP(=O)(O)O)C(=O)O; FAM = 5,6-carboxyfluorescein; Ahx = NCCCCCC(=O)O
T1: 14‐3‐3β (human, UniProt P31946 1-246)
T1 construct: 14-3-3 beta, human, full-length protein from the pProEx HTb-His-14-3-3 construct; Written as the protomer; tag removal is told only for the ∆C proteins; source: E. coli BL21(DE3), purified (Ni2+-NTA, dialysis)
T1 sequence (looked up): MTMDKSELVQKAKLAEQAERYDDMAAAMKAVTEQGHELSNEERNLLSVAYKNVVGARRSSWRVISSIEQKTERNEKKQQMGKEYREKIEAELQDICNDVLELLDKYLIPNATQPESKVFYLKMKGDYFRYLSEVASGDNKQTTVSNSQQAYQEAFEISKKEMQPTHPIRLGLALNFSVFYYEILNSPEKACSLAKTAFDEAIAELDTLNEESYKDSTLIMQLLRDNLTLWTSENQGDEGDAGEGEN

T2: 14‐3‐3ζ (human, UniProt P63104 1-245)
T2 construct: 14-3-3 zeta, human, full-length protein from the pProEx HTb-His-14-3-3 construct; Written as the protomer; tag removal is told only for the ∆C proteins; source: E. coli BL21(DE3), purified (Ni2+-NTA, dialysis)
T2 sequence (looked up): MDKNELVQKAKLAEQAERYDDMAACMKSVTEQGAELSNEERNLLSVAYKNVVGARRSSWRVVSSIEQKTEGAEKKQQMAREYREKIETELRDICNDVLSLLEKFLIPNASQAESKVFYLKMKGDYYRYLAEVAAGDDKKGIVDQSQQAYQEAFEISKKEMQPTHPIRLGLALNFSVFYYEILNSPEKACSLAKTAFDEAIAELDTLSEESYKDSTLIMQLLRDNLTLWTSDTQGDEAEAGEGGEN

T3: 14‐3‐3σ (human, UniProt P31947 1-248)
T3 construct: 14-3-3 sigma, human, full-length protein from the pProEx HTb-His-14-3-3 construct (used in the FA assays); Written as the protomer; tag removal is told only for the ∆C proteins; source: E. coli BL21(DE3), purified (Ni2+-NTA, dialysis)
T3 sequence (looked up): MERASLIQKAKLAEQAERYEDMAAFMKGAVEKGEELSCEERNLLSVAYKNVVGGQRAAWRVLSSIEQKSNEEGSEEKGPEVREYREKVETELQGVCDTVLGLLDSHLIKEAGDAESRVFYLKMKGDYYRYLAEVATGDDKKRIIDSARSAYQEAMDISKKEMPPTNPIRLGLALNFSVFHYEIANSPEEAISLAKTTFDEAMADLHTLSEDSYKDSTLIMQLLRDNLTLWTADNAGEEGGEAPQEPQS

T4: 14‐3‐3γ (human, UniProt P61981 1-247)
T4 construct: 14-3-3 gamma, human, full-length protein from the pProEx HTb-His-14-3-3 construct; Written as the protomer; tag removal is told only for the ∆C proteins; source: E. coli BL21(DE3), purified (Ni2+-NTA, dialysis)
T4 sequence (looked up): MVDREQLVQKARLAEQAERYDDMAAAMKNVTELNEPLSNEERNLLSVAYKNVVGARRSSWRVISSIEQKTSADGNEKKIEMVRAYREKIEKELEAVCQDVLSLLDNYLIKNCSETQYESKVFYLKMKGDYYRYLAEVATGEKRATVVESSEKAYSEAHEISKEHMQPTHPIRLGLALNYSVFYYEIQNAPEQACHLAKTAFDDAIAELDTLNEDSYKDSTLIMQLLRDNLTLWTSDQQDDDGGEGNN

T5: 14‐3‐3τ (human, UniProt P27348 1-245)
T5 construct: 14-3-3 tau/theta, human, full-length protein from the pProEx HTb-His-14-3-3 construct; Written as the protomer; tag removal is told only for the ∆C proteins; also called τ/θ; source: E. coli BL21(DE3), purified (Ni2+-NTA, dialysis)
T5 sequence (looked up): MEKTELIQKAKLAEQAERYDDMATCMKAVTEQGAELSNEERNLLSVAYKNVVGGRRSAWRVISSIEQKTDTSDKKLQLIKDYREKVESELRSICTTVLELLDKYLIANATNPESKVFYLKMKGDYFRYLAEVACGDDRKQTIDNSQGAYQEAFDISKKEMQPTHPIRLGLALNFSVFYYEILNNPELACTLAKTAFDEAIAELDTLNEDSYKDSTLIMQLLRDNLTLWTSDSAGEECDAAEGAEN

B1: FAM‐Ahx‐hDMX_(361‐374) ^pSer367 (peptide)
peptide: {FAM-Ahx}-DCRRTI[pS]APVVRPK-NH2
notes: Tracer form used in the FA assays; source: synthetic peptide (Fmoc SPPS, HPLC purified)
B2: FAM‐Ahx‐hDM2_(160‐171) ^pSer166 (peptide)
peptide: {FAM-Ahx}-SRRRAI[pS]ETEEN-NH2
notes: hDM2 (human double minute 2 protein), human, residues 160-171; Tracer form used in the FA assays; also called hDM2_(160‐171) ^Ser166; source: synthetic peptide (Fmoc SPPS, HPLC purified)
B3: FAM‐Ahx‐hDMX_(335‐349) ^pSer342 (peptide)
peptide: {FAM-Ahx}-SKLTHSL[pS]TSDITAI-NH2
notes: hDMX (human double minute 4 protein, hDM4), human, residues 335-349; Tracer form used in the FA assays; source: synthetic peptide (Fmoc SPPS, HPLC purified)
B4: FAM‐Ahx‐hDM2_(180‐192) ^pSer186 (peptide)
peptide: {FAM-Ahx}-QRKRHK[pS]DSISLS-NH2
notes: hDM2 (human double minute 2 protein), human, residues 180-192; Tracer form used in the FA assays; source: synthetic peptide (Fmoc SPPS, HPLC purified)

Biological target: T1, 14‐3‐3β
Test: fluorescence polarisation; fluorescence anisotropy, direct titration: 14-3-3 protein titrated (1/2 dilution series) against 50 nM FAM-Ahx tracer peptide; 10 mM HEPES, 150 mM NaCl, 0.1% Tween 20, 0.1% BSA, pH 7.4; 384 well plates, triplicates; protein concentration as 14-3-3 monomer; 1:1 fit, biphasic curves fitted as two separate 1:1 events (Kd1, Kd2)
Settings: both partners purified

Question: For B1, which Kd is on record?
Answer: The Kd was 0.51 ± 0.02 µM.

Question: Which Kd does the source give for B2 here?
Answer: Its Kd is 11.1 ± 0.5 µM.

Question: B3 was tested. Which Kd did it give?
Answer: Its Kd is 49.4 ± 11.5 µM.

Question: How did the Kd turn out when B4 was run?
Answer: The Kd was 208 ± 6.3 µM.

Biological target: T2, 14‐3‐3ζ
Test: as above
Settings: both partners purified

Question: B1 was tested. Which Kd did it give?
Answer: The Kd was 0.92 ± 0.03 µM.

Question: For B2, which Kd is on record?
Answer: Its Kd is 19.6 ± 0.2 µM.

Question: How did the Kd turn out when B3 was run?
Answer: Its Kd is 95.8 ± 3.6 µM.

Question: Which Kd does the source give for B4 here?
Answer: Its Kd is 166 ± 5.6 µM.

Biological target: T3, 14‐3‐3σ
Test: as above
Settings: both partners purified

Question: For B1, which Kd is on record?
Answer: Its Kd is 3.6 ± 0.4 µM.

Question: With B2 as the binder, how does the Kd read?
Answer: The Kd was 32.7 ± 1.4 µM.

Question: With B3 as the binder, how does the Kd read?
Answer: The Kd was 136 ± 3.6 µM.

Question: With B4 as the binder, how does the Kd read?
Answer: The Kd was over 170 µM.

Biological target: T4, 14‐3‐3γ
Test: as above
Settings: both partners purified

Question: For B1, which Kd is on record?
Answer: Its Kd is 0.53 ± 0.04 µM.

Question: B2 was tested. Which Kd did it give?
Answer: Its Kd is 3.9 ± 0.3 µM.

Question: B3 was tested. Which Kd did it give?
Answer: The Kd was 37.8 ± 0.7 µM.

Question: How did the Kd turn out when B4 was run?
Answer: Its Kd is 82.9 ± 2.1 µM.

Biological target: T5, 14‐3‐3τ
Test: as above
Settings: both partners purified

Question: For B1, which Kd is on record?
Answer: The Kd was 1.2 ± 0.2 µM.

Question: B2 was tested. Which Kd did it give?
Answer: Its Kd is 29.3 ± 2.4 µM.

Question: B3 was tested. Which Kd did it give?
Answer: The Kd was 108 ± 6 µM.

Question: With B4 as the binder, how does the Kd read?
Answer: The Kd was over 250 µM.
